Measured values: patent publication US20240400657A1 (MorphoSys, published 2024)
Changes are numbered by the printed parent chain.

Assays:
[1] = biological target: T1, engineered version of human C5aR expressed on CHO cells of the PathHunter β-arrestin assay (DiscoveRx) (human, UniProt P21730 1-350); assay: cell-based or functional assay
T1 sequence (looked up): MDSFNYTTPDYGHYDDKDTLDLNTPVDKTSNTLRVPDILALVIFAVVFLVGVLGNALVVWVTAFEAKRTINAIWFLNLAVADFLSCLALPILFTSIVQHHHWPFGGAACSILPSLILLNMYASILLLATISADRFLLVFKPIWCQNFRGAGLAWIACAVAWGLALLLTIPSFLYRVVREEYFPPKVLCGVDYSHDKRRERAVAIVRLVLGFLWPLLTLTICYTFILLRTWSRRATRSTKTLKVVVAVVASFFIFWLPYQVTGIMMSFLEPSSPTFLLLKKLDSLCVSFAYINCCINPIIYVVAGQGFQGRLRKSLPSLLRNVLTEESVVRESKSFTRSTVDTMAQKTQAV

[2] = biological target: T2, full length human C5aR stably expressed on CHO Flp-In cells (human, UniProt P21730 1-350); assay: FACS on Flp-In CHO cells, IgG titration
T2 construct: also called human C5aR expressed on CHO cells
T2 sequence: T1 sequence (looked up)
Protocol: (§1) The C5aR-CHO Flp-In™ cell lines were blocked and IgGs were added either in serial dilutions or at a single (high) concentration of 300 nM. For detection of IgG binding, an R-phycoerythrin (R-PE) conjugated anti-human IgG (Fc-gamma fragment specific)2 antibody was added and fluorescence was measured using the FACS Array or Novocyte device.

[3] = biological target: T3, full length cynomolgus C5aR stably expressed on CHO Flp-In cells (cynomolgus monkey (Macaca fascicularis)); assay: FACS on Flp-In CHO cells, IgG titration
T3 chain: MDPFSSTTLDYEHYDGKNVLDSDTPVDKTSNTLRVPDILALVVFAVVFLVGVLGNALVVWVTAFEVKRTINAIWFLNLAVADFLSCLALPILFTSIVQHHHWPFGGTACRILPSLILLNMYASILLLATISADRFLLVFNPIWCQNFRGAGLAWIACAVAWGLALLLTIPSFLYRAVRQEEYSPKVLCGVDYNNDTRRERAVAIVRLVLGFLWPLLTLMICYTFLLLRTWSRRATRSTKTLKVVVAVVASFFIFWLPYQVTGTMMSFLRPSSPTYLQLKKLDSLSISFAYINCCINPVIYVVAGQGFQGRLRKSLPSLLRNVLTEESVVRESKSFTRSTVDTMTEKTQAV
Protocol: as §1

Protein A = biological target: T4, Protein A; assay: Protein Panel Profiling (3P), MSD ECL, coated antigen, IgG 100 nM
T4 construct: control of the 3P panel
Protocol: (§2) 32 different proteins and controls were coated on two 384-well MSD standard plates at a concentration of 1.0 μg/mL at 4° C. over night. The coating solution was discarded and plates were blocked with 50 μL 3% (w/v) BSA in PBS for one hour at RT on a microtiter plate shaker (˜500 rpm) followed by three washing steps with 50 μL washing buffer (PBS with 0.05% (v/v) Tween 20). IgG samples were diluted to 100 nM and 10 nM in assay buffer (PBS with 0.5% (w/v) BSA, 0.05% (v/v) Tween 20). As controls, isotype control antibody MOR03207 (IgG1f_AEASS) and assay buffer were used. Samples and controls were added at 30 μL/well and incubated for three hours at RT on a microtiter plate shaker. The plates were washed three times and 30 μL detection antibody (ECL-labeled anti-human Fab) were added per well and incubated for one hour on a microtiter plate shaker (˜500 rpm). After washing the MSD plate and adding 35 μL/well MSD Read Buffer T with surfactant, electro-chemiluminescence signals were detected using a SECTOR® Imager S600 instrument (Meso Scale Diagnostics).
(§3) For evaluation, binding signals of the antibody sample to a certain protein were divided by the respective binding signals of the reference antibody MOR03207 resulting in a binding ratio (BR). The cumulative binding ratio (CBR) of all proteins except the controls (25 in total) was then calculated: CBR up to 150 indicates an IgG without detectable unspecific binding. Values above 150 indicates an IgG with increased unspecific binding compared to the reference antibody MOR03207.

Lectin = assay: as above
Protocol: as §2, §3

Ovalbumin = assay: as above
Protocol: as §2, §3

Lysozyme = assay: as above
Protocol: as §2, §3

Fibrinogen (b) = Fibrinogen (b) (bovine); assay: as above
Protocol: as §2, §3

[4] = biological target: T5, human C5aR_NT-bio peptide (human, biotin tag (position not given)); assay: as above
T5 construct: Chemically synthesized linear peptide (Genscript); also called human C5aR N-terminal peptide; human C5aR peptide
T5 peptide: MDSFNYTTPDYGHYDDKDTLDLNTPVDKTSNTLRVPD

[5] = biological target: T5, human C5aR_NT-bio peptide; assay: BLI (Octet HTX), biotinylated peptide on SA sensors, IgG as analyte, 1:1 fit, apparent (bivalent)
[6] = biological target: T6, Mouse FcRn p51 [1-297]/AviHis/p14 biotinylated (mouse, UniProt Q61559 22-298; P01887 21-119, biotinylated in vitro with BirA (Avi tag)); assay: BLI (Octet HTX), biotinylated FcRn on SA sensors, IgG titrated, steady state fit, apparent KD, pH 6.0
T6 construct: Heterodimer; UniProt Q61559 (p51); also called Murine FcRn
T6 chain 1: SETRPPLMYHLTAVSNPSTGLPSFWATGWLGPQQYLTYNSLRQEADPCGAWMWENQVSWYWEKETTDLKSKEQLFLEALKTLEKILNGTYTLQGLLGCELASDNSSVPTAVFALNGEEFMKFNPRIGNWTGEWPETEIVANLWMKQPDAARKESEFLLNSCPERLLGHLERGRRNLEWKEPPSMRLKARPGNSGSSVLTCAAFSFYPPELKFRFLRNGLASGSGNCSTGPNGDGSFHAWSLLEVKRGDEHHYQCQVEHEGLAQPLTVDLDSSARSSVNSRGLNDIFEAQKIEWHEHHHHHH
T6 chain 2: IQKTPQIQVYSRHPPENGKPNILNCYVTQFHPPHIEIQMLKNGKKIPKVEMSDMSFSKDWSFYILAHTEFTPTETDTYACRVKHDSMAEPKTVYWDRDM
Description: (§4) 0.5 nm of biotinylated human, cynomolgus, mouse and rat FcRn were captured on streptavidin (SA) sensors (FortéBIO, Pall Life Sciences). […] All sensorgrams were fitted using Data Analysis Software 10.0 (FortéBIO, Pall Life Sciences) to determine the apparent affinity and the data was fitted with a steady state model.

[7] = biological target: T7, Rat FcRn p51 [1-298]/AviHis/p14 biotinylated (rat, UniProt P13599 23-299; P07151 21-119, biotinylated in vitro with BirA (Avi tag)); assay: as above
T7 construct: Heterodimer; UniProt P13599 (p51)
T7 sequence 1: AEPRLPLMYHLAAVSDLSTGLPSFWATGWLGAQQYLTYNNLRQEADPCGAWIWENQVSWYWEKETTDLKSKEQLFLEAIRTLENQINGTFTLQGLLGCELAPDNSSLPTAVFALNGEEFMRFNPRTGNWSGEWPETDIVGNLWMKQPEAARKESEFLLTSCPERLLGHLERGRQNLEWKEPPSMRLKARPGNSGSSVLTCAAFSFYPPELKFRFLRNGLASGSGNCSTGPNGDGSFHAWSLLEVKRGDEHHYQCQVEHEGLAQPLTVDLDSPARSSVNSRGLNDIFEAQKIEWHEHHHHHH
T7 sequence 2: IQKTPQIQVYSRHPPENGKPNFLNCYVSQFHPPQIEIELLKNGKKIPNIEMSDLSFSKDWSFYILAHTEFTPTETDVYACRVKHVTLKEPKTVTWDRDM
Description: as §4

[8] = biological target: T8, cynomolgus C5aR_NT-bio peptide (cynomolgus monkey, biotin tag (position not given)); assay: SPR (Biacore T200), IgG captured on anti-human-Fc, peptide as analyte, 1:1 fit, monovalent; value marked * (for ranking purposes; fast kon, fast koff)
T8 construct: Chemically synthesized linear peptide (Genscript); also called cynomolgus C5aR N-terminal peptide; cynomolgus C5aR peptide
T8 peptide: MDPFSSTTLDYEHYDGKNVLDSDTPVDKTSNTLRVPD

Lysozyme, sequence (P00698 19-147): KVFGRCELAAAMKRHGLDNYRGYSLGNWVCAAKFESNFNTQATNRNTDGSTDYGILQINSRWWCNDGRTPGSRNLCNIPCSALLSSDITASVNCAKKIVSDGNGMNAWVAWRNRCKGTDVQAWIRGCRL
Ovalbumin, sequence (P01012 2-386): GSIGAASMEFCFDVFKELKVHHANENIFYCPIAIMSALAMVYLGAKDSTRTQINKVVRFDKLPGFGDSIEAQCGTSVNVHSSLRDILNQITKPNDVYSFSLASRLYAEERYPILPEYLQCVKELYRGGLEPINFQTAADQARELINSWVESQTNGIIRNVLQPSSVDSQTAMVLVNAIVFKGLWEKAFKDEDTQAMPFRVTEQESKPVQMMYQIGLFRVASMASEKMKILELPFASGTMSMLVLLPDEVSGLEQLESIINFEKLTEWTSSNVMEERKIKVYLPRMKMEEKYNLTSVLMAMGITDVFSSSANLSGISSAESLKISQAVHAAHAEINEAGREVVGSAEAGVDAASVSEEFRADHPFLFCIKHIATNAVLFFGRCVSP
Fibrinogen (b) (bovine), sequence (P02672 20-615, chain 1 of 3): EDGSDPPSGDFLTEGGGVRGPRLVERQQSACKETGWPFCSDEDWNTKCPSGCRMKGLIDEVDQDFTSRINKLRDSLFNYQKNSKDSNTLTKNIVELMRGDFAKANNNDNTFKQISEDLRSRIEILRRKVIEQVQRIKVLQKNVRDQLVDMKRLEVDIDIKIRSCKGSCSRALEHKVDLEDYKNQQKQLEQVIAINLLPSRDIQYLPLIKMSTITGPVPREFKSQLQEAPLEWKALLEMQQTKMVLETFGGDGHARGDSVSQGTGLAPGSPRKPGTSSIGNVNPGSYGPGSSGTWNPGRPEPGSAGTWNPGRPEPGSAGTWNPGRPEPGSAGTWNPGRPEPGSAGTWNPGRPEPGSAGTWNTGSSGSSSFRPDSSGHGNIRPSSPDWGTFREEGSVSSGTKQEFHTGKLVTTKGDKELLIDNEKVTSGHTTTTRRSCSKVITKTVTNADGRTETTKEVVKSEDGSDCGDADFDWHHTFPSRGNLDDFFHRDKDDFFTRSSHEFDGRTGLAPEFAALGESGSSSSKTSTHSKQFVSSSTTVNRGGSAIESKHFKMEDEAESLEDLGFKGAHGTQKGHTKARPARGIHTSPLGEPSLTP
Fibrinogen (b) (bovine), sequence (P02676 whole entry, chain 2 of 3, further chain): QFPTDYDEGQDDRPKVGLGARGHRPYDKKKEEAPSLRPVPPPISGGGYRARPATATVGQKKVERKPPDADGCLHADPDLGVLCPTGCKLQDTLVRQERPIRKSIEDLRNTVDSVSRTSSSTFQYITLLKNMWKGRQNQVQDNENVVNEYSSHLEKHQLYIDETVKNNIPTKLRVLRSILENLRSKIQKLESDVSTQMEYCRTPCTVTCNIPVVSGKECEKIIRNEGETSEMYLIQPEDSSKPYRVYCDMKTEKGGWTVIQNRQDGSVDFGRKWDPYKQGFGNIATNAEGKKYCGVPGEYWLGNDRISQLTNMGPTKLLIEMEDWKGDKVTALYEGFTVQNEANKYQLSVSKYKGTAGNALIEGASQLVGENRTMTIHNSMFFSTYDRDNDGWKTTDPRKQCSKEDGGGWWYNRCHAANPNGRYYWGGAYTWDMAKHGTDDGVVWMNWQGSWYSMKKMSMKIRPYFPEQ
Fibrinogen (b) (bovine), sequence (P12799 25-444, chain 3 of 3, further chain): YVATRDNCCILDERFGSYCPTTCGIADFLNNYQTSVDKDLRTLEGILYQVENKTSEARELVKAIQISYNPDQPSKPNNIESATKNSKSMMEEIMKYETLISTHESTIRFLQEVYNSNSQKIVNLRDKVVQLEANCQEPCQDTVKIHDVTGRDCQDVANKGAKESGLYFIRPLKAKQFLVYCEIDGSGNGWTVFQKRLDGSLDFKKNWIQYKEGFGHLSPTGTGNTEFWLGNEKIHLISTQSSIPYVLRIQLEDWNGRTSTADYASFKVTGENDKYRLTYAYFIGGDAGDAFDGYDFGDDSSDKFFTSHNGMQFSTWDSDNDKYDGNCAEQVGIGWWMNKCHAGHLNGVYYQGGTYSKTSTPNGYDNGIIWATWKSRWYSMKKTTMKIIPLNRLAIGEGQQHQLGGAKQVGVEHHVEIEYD

B1: MAB #2 (antibody, human IgG1, lambda)
heavy: EVQLVESGGGLVKPGGSLRLSCAASGFTFSSYAMHWVRQAPGKGLEWVGRIKSVAQGGTTDYAAHVKGRFTISRDDSKNTLYLQMNSLKTEDTAVYYCARVSHSTFDVWGQGTLVTVSSASTKGPSVFPLAPSSKSTSGGTAALGCLVKDYFPEPVTVSWNSGALTSGVHTFPAVLQSSGLYSLSSVVTVPSSSLGTQTYICNVNHKPSNTKVDKRVEPKSCDKTHTCPPCPAPEAEGAPSVFLFPPKPKDTLMISRTPEVTCVVVDVSHEDPEVKFNWYVDGVEVHNAKTKPREEQYNSTYRVVSVLTVLHQDWLNGKEYKCKVSNKALPSSIEKTISKAKGQPREPQVYTLPPSREEMTKNQVSLTCLVKGFYPSDIAVEWESNGQPENNYKTTPPVLDSDGSFFLYSKLTVDKSRWQQGNVFSCSVMHEALHNHYTQKSLSLSPGK
light: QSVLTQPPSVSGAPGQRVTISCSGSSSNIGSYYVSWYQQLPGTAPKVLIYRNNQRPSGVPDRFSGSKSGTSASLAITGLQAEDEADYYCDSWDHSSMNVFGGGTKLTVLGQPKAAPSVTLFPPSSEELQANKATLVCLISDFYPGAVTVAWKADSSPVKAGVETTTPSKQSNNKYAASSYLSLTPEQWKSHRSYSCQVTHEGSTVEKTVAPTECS
notes: lambda 1 light chain
B1 was tested, and the “Activity of human C5a EC50 (nM) in presence of 50 nM anti-C5aR antibody, β-arrestin recruitment” value [1] was 37 nM, the “x fold reduced activity of C5a in presence of anti-C5aR antibody (50 nM)” value [1] was 12.8 fold and the EC50 [2] was 1.2 nM. For the same binder, the EC50 [3] was 1.4 nM, the “binding ratio (signal / signal of MOR03207)” value (Protein A) was 1 and the “binding ratio (signal / signal of MOR03207)” value (Lectin) was 2. For the same binder, the “binding ratio (signal / signal of MOR03207)” value (Ovalbumin) was 4, the “binding ratio (signal / signal of MOR03207)” value (Lysozyme) was 2 and the “binding ratio (signal / signal of MOR03207)” value (Fibrinogen (b)) was 2. The “binding ratio (signal / signal of MOR03207)” value [4] was 49, the Kd [5] was 0.29 nM and the koff [5] was 0.000111 s⁻¹. The kon [5] was 378000 M⁻¹ s⁻¹, the Kd [6] was 7.3 nM and the Kd [7] was 10 nM. The Kd [8] was 34000 nM, the koff [8] was 0.145 s⁻¹ and the kon [8] was 4290 M⁻¹ s⁻¹.

B2: MAB #1 (antibody, human IgG1, lambda)
heavy: B1 heavy with V54K, H103F
light: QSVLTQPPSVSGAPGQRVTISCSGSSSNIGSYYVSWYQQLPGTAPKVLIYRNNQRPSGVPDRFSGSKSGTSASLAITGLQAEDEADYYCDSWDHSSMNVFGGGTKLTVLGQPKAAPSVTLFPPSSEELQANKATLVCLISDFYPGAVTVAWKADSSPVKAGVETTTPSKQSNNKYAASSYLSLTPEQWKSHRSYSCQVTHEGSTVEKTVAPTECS
notes: lambda 1 light chain, VH3-15 framework
For B2, the “Activity of human C5a EC50 (nM) in presence of 50 nM anti-C5aR antibody, β-arrestin recruitment” value [1] was 37 nM, the “x fold reduced activity of C5a in presence of anti-C5aR antibody (50 nM)” value [1] was 12.8 fold and the EC50 [2] was 1.7 nM. For the same binder, the EC50 [3] was 1.1 nM, the “binding ratio (signal / signal of MOR03207)” value (Protein A) was 1 and the “binding ratio (signal / signal of MOR03207)” value (Lectin) was 2. The “binding ratio (signal / signal of MOR03207)” value (Ovalbumin) was 2, the “binding ratio (signal / signal of MOR03207)” value (Lysozyme) was 2 and the “binding ratio (signal / signal of MOR03207)” value (Fibrinogen (b)) was 2. The “binding ratio (signal / signal of MOR03207)” value [4] was 84, the Kd [5] was 0.02 nM and the koff [5] was 9.99e-06 s⁻¹. The kon [5] was 476000 M⁻¹ s⁻¹, the Kd [6] was 4.3 nM and the Kd [7] was 5.7 nM. For the same binder, the Kd [8] was 8200 nM, the koff [8] was 0.111 s⁻¹ and the kon [8] was 13600 M⁻¹ s⁻¹.
